Source: article PMC2804184
pKd: −log10 of the molar value.

Molecular target: p97 C-terminal peptide (last 10 residues, …), N-terminally labeled with fluorescein
Assay: fluorescence polarisation

Work on “PLAA C-terminal PUL domain (residues 454-738) (domain or fragment)” yielded a pKd of 5.30.
